System: T1, Ms6 integrase (Int) (Mycobacterium phage Ms6)
T1 sequence: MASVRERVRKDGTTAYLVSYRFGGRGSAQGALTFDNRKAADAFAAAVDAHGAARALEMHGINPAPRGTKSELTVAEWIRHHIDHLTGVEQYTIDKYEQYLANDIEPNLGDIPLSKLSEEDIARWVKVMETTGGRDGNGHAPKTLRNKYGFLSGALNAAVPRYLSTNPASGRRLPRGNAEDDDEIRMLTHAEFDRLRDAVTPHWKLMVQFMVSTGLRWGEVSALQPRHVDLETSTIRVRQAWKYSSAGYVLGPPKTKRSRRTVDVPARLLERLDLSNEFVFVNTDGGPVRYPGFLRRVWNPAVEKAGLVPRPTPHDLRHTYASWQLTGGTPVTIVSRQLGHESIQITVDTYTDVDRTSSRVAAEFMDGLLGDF
Experiment: cell_activity
Settings: for activity (transformants/ug DNA): M. smegmatis

Ms6 attP-int fragment, 1459 bp (primers p1C/p10)
activity (transformants/ug DNA) (no integration): 0

Ms6 attP-int fragment, 1382 bp (primers pC/p10)
activity (transformants/ug DNA) (no integration): 0

CAGCAGACACCCACATGTCCGTGTTGTCACTGACAACACGGCTCCAGGTTTTCCCAGGTCGCTACAGGTCTAAAAAGGTCGGAACAGAACCACACGGGTGTTTTTTCGCAGGTAAACGCCCATTTCCCCACGATCGAAGGGGTTCGAATCCCCTTAGCTCCACCCAAAACCGCAGGTCAGCGAATCGCCCAGAATCTGACAGCACCGATGACATCACAACGGATAGAATCCGGGTATGGCATCAGTGCGTGAACGGGTCCGCAAAGAC (double strand) [Ms6 attP region, 273 bp (pAV3, primers p13/p2N)]
activity (colonies/ug DNA) (integrase in trans from suicide helper pAV4, about): 40000

Ms6 attP-int fragment, 1521 bp (primers p13/p10)
activity (transformants/ug DNA) (smallest functional cassette): 100000
